Paper PMC2602789

Target: wild-type Tn3 resolvase (bacterial transposon Tn3) (UniProt P0ADI2)
Assay: SEC

Q: For “wild-type Tn3 resolvase (from UniProt P0ADI2 1-185) (enzyme)”, which stoichiometry N is on record?
A: 2
